Measurements reported in patent US20190343963A1 (published 2019).
Residue numbers refer to the chain shown, from its start. Numbers in names are those of the source. Each block holds one binder with its values, some of them ahead of it.

Assays:
[1] = target: T1, FLAG-tagged human IL-13 (human, UniProt P35225 35-146); test: competition ELISA; 1 h incubation
[2] = target: T1, FLAG-tagged human IL-13; test: competition ELISA; 24 h incubation
[3] = target: T1, FLAG-tagged human IL-13; test: competition ELISA; 24 h incubation; remark: listed apart in the source
[4] = target: T1, FLAG-tagged human IL-13; test: competition ELISA; 1 h incubation; remark: listed apart in the source

T1 sequence (P35225 35-146): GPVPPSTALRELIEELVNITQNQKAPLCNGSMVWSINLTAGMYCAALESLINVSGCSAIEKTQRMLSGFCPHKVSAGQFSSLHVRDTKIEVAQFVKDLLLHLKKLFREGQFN

B2: 111 7g11 Alb22 NQ (protein)
chain: ATYNGCSSSEQSALAAAASAAQSYVAESLSYLQTHTAATPRYTTWFGSYISSRHSTVLQHYTDMNSNDFSSYSFDCTCTAAGTFAYVYPNRFGTVYLCGAFWQAPTTGTDSQAGTLVHESSHFTRNGGTDDYAYGQAAAQSLATMNPDQAVMNANNHQYFSENNPAQSAAAGGGGSGDLGRRLLEAARAGQDDEVRILMANGADVNAADYFSHTPLHLAARNGHLEIVEVLLQAGADVNASDFAGKTPLHLAANDGHLEIVEVLLQHGADVNAQDIFGRTPADIAADAGHEDIAEVLQRLNGGGGSGGGGSGGGGSGGGGSGGGGSGGGGSGGGSSGLDRRLLEAARAGQDDEVRILMANGADVNATDEFDSTPLHLAARHGHLEIVEVLLQYGADVNAADFIGDTPLHLAAYRGHLEIVEVLLQYGVDVNADDHGDTPLHLAASTGHLEIVEVLLQHGADVNAQDIFGRTAFDISIDNGNEDLAEILQRAA
EC50 [3]: 0.0069 nM | EC50 [4]: 0.075 nM

B3: SH111 wt ΔK (protein)
chain: TYNGCSSSEQSALAAAASAAQSYVAESLSYLQTHTAATPRYTTWFGSYISSRHSTVLQHYTDMNSNDFSSYSFDCTCTAAGTFAYVYPNRFGTVYLCGAFWQAPTTGTDSQAGTLVHESSHFTRNGGTDDYAYGQAAAQSLATMNPDQAVMNADNHEYFSENNPAQSAAAGGGGSGDLGRRLLEAARAGQDDEVRILMANGADVNAADYFSHTPLHLAARNGHLEIVEVLLQYGADVNASDFAGRTPLHLAANDGHLEIVEVLLQHGADVNAQDIFGRTPADIAADNGHEDIAEVLQRAAGGGGSGGGGSGGGGSGGGGSGGGGSGGGGSGGGSSALDRRLLEAARAGQDDEVRILMANGADVNARDSYGSTPLHLAAREGHLEIVEVLLQYGADVNAADFIGDTPLHLAAYRGHLEIVEVLLQYGADVNASDITGETPLHLAAQIGHLEIVEVLLQHGADVNAQDIFGRTAFDISIDNGNEDLAEILQRAA
EC50 [1]: 0.065 nM | EC50 [2]: 0.002 nM

B6: SH111 D154N ΔK (protein)
chain: SSYSFDCTCTAAGTFAYVYPNRFGTVYLCGAFWQAPTTGTDSQAGTLVHESSHFTRNGGTDDYAYGQAAAQSLATMNPDQAVMNANNHEYFSENNPAQSAAAGGGGSGDLGRRLLEAARAGQDDEVRILMANGADVNAADYFSHTPLHLAARNGHLEIVEVLLQYGADVNASDFAGRTPLHLAANDGHLEIVEVLLQHGADVNAQDIFGRTPADIAADNGHEDIAEVLQRAAGGGGSGGGGSGGGGSGGGGSGGGGSGGGGSGGGSSALDRRLLEAARAGQDDEVRILMANGADVNARDSYGSTPLHLAAREGHLEIVEVLLQYGADVNAADFIGDTPLHLAAYRGHLEIVEVLLQYGADVNASDITGETPLHLAAQIGHLEIVEVLLQHGADVNAQDIFGRTAFDISIDNGNEDLAEILQRAA
EC50 [1]: 0.802 nM | EC50 [2]: 0.015 nM

B7: 111 7g11 Alb22 (protein)
chain: TYNGCSSSEQSALAAAASAAQSYVAESLSYLQTHTAATPRYTTWFGSYISSRHSTVLQHYTDMNSNDFSSYSFDCTCTAAGTFAYVYPNRFGTVYLCGAFWQAPTTGTDSQAGTLVHESSHFTRNGGTDDYAYGQAAAQSLATMNPDQAVMNADNHEYFSENNPAQSAAAGGGGSGDLGRRLLEAARAGQDDEVRILMANGADVNAADYFSHTPLHLAARNGHLEIVEVLLQAGADVNASDFAGKTPLHLAANDGHLEIVEVLLQHGADVNAQDIFGRTPADIAADAGHEDIAEVLQRLNGGGGSGGGGSGGGGSGGGGSGGGGSGGGGSGGGSSGLDRRLLEAARAGQDDEVRILMANGADVNATDEFDSTPLHLAARHGHLEIVEVLLQYGADVNAADFIGDTPLHLAAYRGHLEIVEVLLQYGVDVNADDHGDTPLHLAASTGHLEIVEVLLQHGADVNAQDIFGRTAFDISIDNGNEDLAEILQRAA
EC50 [3]: 0.0036 nM | EC50 [4]: 0.019 nM

Further lines, results first:

EC50 [1]: 13.7 nM | EC50 [2]: 21.2 nM
B1: IL-13 DARPin ΔK (protein)
chain: ALDRRLLEAARAGQDDEVRILMANGADVNARDSYGSTPLHLAAREGHLEIVEVLLQYGADVNAADFIGDTPLHLAAYRGHLEIVEVLLQYGADVNASDITGETPLHLAAQIGHLEIVEVLLQHGADVNAQDIFGRTAFDISIDNGNEDLAEILQRAA

EC50 [1]: 0.705 nM | EC50 [2]: 0.027 nM
B4: SH111 NQ ΔK (protein)
chain: B3 chain with D154N, E157Q

EC50 [1]: 0.08 nM | EC50 [2]: 0.003 nM
B5: SH111 E157Q ΔK (protein)
chain: B3 chain with E157Q
